Laboratory results as given in patent US7585498B2, “Regulation of adenovirus DNA packaging by IPTG” (The Research Foundation of State University of New York, priority 2001, dated 2009).

B1: LacWT: M45 epitope-tagged wild type E. coli Lac repressor protein in whole cell extract of transfected 293 cells (protein)
chain: MKPVTLYDVAEYAGVSYQTVSRVVNQASHVSAKTREKVEAAMAELNYIPNRVAQQLAGKQSLLIGVATSSLALHAPSQIVAAIKSRADQLGASVVVSMVERSGVEACKAAVHNLLAQRVSGLIINYPLDDQDAIAVEAACTNVPALFLDVSDQTPINSIIFSHEDGTRLGVEHLVALGHQQIALLAGPLSSVSARLRLAGWHKYLTRNQIQPIAEREGDWSAMSGFQQTMQMLNEGIVPTAMLVANDQMALGAMRAITESGLRVGADISVVGYDDTEDSSCYIPPLTTIKQDFRLLGQTSVDRLLQLSQGQAVKGNQLLPVSLVKRKTTLAPNTQTASPRALADSLMQLARQVSRLESGQ
modifications: left off: small tags and cut ends

Assays:
N52.E6 cells = experiment: Generation of virus stocks with IPTG in the media; type: cell-based, human; conditions: 2 mM IPTG in the media
Excerpt: Towards the development of an all-inclusive helper virus whose packaging is specifically and selectively repressed while providing early and late gene products for complementation in trans of a gutted virus, the following recombinant Ad was constructed (FIG. 14). Ad-AV-VII(lac)^2-LacWT contains the AV-VII(lac)^2 minimal domain in place of the WT packaging domain as well as a CMV-M45-LacWT expression cassette. Ad-AV-VII^2-LacWT serves as a control, and contains the AV-VII^2 minimal domain without Lac binding sites, as well as the CMV-M45-LacWT expression cassette. These viruses were plaque purified and grown in N52.E6 cells. N52.E6 cells are a human amniocyte cell line transformed with Ad E1A and E1B sequences (Schiedner, Hertel et al. 2000). These cells contain only Ad nts 505-3522 and share no homologous sequence with the viral DNA constructs, thus eliminating the possibility of the generation of replication competent adenovirus (RCA) by recombination with Ad sequences present in other E1-containing cell lines. To generate stocks of these viruses, they were grown in N52.E6 cells with IPTG in the media at a concentration of 2 mM. IPTG is required in the media, as these viruses express Lac repressor protein that is able to bind to lac binding sites within the packaging domain and suppress packaging.

[1] = system: AV-VII(lac)^2 dimer probe; experiment: Gel mobility shift assay, AV-VII(lac)^2 dimer probe; conditions: whole cell extract of transfected 293 cells
[2] = system: lac binding site monomer probe; experiment: Gel mobility shift assay, lac binding site monomer probe; conditions: whole cell extract of transfected 293 cells

Row | Molecule | growth of Lac repressor expressing viruses (N52.E6 cells) | AV-VII(lac) dimer binding activity [1] | Lac site monomer binding activity [2]
1 | CC(C)S[C@@H]1O[C@H](CO)[C@H](O)[C@H](O)[C@H]1O [IPTG, isopropyl-β-D-thiogalactopyranoside] | allowed for growth of these viruses | – | –
2 | B1 | – | detected | detected
